From patent US12227579B2, “Bispecific antibody targeting IL-1R1 and NLPR3” (University of Ulster, priority 2018, dated 2025)

B1: InflaMab: 210 kDa bispecific mouse antibody against IL-1R1 and NLRP3; light chain SEQ ID NO: 57, heavy chain SEQ ID NO: 59 (antibody)
heavy: MGWTLVFLFLLSVTAGVHSQIQLVQSGPELRKPGETVRISCKASGYPFTTAGLQWVQKMSGKGLKWIGWMNTQSEVPKYAEEFKGRIAFSLETAASTAYLQINNLKTEDTATYFCAKSVYFNWRYFDVWGAGTTVTVSSAKTTAPSVYPLAPVCGDTTGSSVTLGCLVKGYFPEPVTLTWNSGSLSSGVHTFPAVLQSDLYTLSSSVTVTSSTWPSQSITCNVAHPASSTKVDKKIEPRGPTIKPCPPCKCPAPNLLGGPSVFIFPPKIKDVLMISLSPIVTCVVVDVSEDDPDVQISWFVNNVEVHTAQTQTHREDYNSTLRVVSALPIQHQDWMSGKEFKCKVNNKDLPAPIERTISKPKGSVRAPQVYVLPPPEEEMTKKQVTLTCMVTDFMPEDIYVEWTNNGKTELNYKNTEPVLDSDGSYFMYSKLRVEKKNWVERNSYSCSVVHEGLHNHHTTKSFSRTPGKGSAGGSGGDSEVQLVESGGGLVKPGGSLKLSCAASGFTFSDYYMYWVRQTPEKRLEWVATISDGGTYTYYPDSVKGRFTISRDNAKNNLYLQMNSLKSEDTAMYYCARGWVSTMVKLLSSFPYWGQGTLVTVSAGGGGSGGGGSGGGGSQAVVTQESALTTSPGETVTLTCRSSTGAVTTSNYANWVQEKPDHLFTGLIGGTNNRAPGVPARFSGSLIGDKAALTITGAQTEDEAIYFCALWYSNYWVFGGGTKLTVLGQPK
light: MVSSAQFLGLLLLCFQGTRCDIVMTQSPATLSVTPGDRVSLSCRASQSISDYLSWYQQRSHESPRLIIKYASQSISGIPSRFSGSGSGSDFTLSINSVEPEDVGVYYCQHGHSFPLTFGSGTKLELKRADAAPTVSIFPPSSEQLTSGGASVVCFLNNFYPKDINVKWKIDGSERQNGVLNSWTDQDSKDSTYSMSSTLTLTKDEYERHNSYTCEATHKTSTSPIVKSFNRNEC
B2: F226 7A7-1E1-2D5: anti-NLRP3 monoclonal antibody from hybridoma clone, sequenced and used in the bispecific (antibody, V domains shown)
VH: EVQLVESGGGLVKPGGSLKLSCAASGFTFSDYYMYWVRQTPEKRLEWVATISDGGTYTYYPDSVKGRFTISRDNAKNNLYLQMNSLKSEDTAMYYCARGWVSTMVKLLSSFPYWGQGTLVTVSAAKTTPPSVYPLA
VL: QAVVTQESALTTSPGETVTLTCRSSTGAVTTSNYANWVQEKPDHLFTGLIGGTNNRAPGVPARFSGSLIGDKAALTITGAQTEDEAIYFCALWYSNYWVFGGGTKLTVLGQPKSSPSVTLFPPSTEKLSL

Tests used:
THP1 cells [1] = experiment: Internalization of pHrodo red labelled bi-specific Ab in THP1 cells; type: cell-based; settings: pHrodo red labelled Ab 1 ug/ml 30 min, LPS then ATP; confocal image
Procedure: (§1) Internalization of Inflamab—see FIG. 35. THP1 cells, for FIG. 35, were cultured in 96-well plates at 100,000 cells/200 ul complete media. Differentiation of THP1 cells was induced by PMA (100 ug/ml for 72 hours). Following 24 hours of rest, differentiated THP1 cells were stimulated with LPS (1 ug/ml) for 3 hours, treated with a pHrodo red labelled IL-1 r/NLRP3 Ab (1 ug/ml) for 30 minutes, followed by ATP (5 mM) for 1 hour. The internalization of the Ab was tracked using a pHrodo red labelled bi-specific Ab that only fluoresces when internalized.

THP1 cells [2] = experiment: IL-1β release from LPS/ATP-stimulated differentiated THP1 cells (ELISA); type: cell-based; settings: PMA-differentiated THP1, LPS 1 μg/ml 3 h, Ab 0.0025-2.5 ng/ml (FIG. 33a) or 1 nM (FIG. 33b) 30 min, ATP 5 mM 1 h; supernatant ELISA
Procedure: THP1 cells, for FIGS. 33a and b, were cultured in 96-well plates at 100,000 cells/200 μl complete media. PMA (100 μg/ml for 72 hours) was used to differentiate THP-1 cells into macrophages. Following 24 hours of rest, differentiated THP1 cells were stimulated with LPS (1 μg/ml) for 3 hours, treated with MCC950 (1 μM) or the IL-1R1/NLRP3 Ab in a dose dependent fashion from 0.0025 ng/ml to 2.5 ng/ml for FIG. 33a or with IL-1R1/NLRP3 Ab (1 nM) for FIG. 33b or with IgG control antibody for 30 minutes, followed by ATP (5 mM) for 1 hour. IL-1 release was measured in the supernatant by ELISA.

THP1 cells [3] = experiment: Caspase-1 activation in THP1 cells (FAM-FLICA staining, confocal); type: cell-based
Procedure: THP1 cells, for FIG. 34, were cultured in 96-well plates at 100,000 cells/200 ul complete media. PMA ([…] for 72 hours) was used to differentiated THP-1 cells into macrophages. Following 24 hours of rest, differentiated THP1 cells were stimulated with LPS (1 ug/ml) for 3 hours, treated with the IL-1R1/NLRP3 Ab (1 ug/ml) for 30 minutes, followed by ATP (5 mM) for 1 hour. Caspase-1 activation was assessed by staining cells with a non-cytotoxic Fluorescent Labelled Inhibitor of Caspase-1 (FAM-FLICA) and DAPI (nuclear stain). Cells were treated with LPS alone (negative control), LPS+ATP (positive control), mouse IgG2a (1 ug/ml, Ab control), or IL-1 r/NLRP3 bi-specific Ab (1 ug/ml, experimental). Representative confocal images are shown for each group. Green=active caspae-1 and blue=Dapi/nuclear stain.
as §1

[4] = tested on: microbead-induced mouse model of glaucoma; experiment: Microbead-induced mouse model of glaucoma; type: in vivo
Procedure: In the current study, WT C57BL/6J mice are receiving a single intravitreal injection of Inflamab (final vitreous concentration of 2.5, 25, or 250 ng/ml) on Day 0, immediately preceding the injection of microbeads and mice receiving saline only (no beads) are serving as a non-glaucoma control. RGC function is currently being measured by pERG using a fully integrated ERG system for rodents (Celeris). Changes in pERG amplitude is being measured in mice that received microbeads only and compared to mice that received microbeads plus Inflamab (final vitreous concentration of 2.5, 25, and 250 ng/ml) or saline only (no beads) [FIG. 42]. […] Visual acuity using an optomotor reflex-based spatial frequency threshold test, as well as RGC and axon quantification, is performed to further corroborate the neuroprotective effect of Inflamab and including additional control groups (microbead-injected mice treated with the appropriate IgG control antibody).
RGC analysis in WT mice treated with the NLRP3 inhibitor MCC950—see FIG. 41. […]
RGC function in WT mice treated with the NLRP3 inhibitor InflaMab—see FIG. 42. […] RGC function was measured by pERG using a fully integrated ERG system for rodents (Celeris) and changes in pERG amplitude was measured in mice that received microbeads only and compared to mice that received microbeads plus Inflamab (2.5, 25, and 250 ng/ml) or saline only (no beads). […]

NLRP3 inflammasome = NLRP3 inflammasome (Homo sapiens, UniProt Q96P20); experiment: NLRP3 assembly in vitro assay; settings: among hybridoma clones
Sequence of NLRP3 inflammasome (Q96P20 whole entry): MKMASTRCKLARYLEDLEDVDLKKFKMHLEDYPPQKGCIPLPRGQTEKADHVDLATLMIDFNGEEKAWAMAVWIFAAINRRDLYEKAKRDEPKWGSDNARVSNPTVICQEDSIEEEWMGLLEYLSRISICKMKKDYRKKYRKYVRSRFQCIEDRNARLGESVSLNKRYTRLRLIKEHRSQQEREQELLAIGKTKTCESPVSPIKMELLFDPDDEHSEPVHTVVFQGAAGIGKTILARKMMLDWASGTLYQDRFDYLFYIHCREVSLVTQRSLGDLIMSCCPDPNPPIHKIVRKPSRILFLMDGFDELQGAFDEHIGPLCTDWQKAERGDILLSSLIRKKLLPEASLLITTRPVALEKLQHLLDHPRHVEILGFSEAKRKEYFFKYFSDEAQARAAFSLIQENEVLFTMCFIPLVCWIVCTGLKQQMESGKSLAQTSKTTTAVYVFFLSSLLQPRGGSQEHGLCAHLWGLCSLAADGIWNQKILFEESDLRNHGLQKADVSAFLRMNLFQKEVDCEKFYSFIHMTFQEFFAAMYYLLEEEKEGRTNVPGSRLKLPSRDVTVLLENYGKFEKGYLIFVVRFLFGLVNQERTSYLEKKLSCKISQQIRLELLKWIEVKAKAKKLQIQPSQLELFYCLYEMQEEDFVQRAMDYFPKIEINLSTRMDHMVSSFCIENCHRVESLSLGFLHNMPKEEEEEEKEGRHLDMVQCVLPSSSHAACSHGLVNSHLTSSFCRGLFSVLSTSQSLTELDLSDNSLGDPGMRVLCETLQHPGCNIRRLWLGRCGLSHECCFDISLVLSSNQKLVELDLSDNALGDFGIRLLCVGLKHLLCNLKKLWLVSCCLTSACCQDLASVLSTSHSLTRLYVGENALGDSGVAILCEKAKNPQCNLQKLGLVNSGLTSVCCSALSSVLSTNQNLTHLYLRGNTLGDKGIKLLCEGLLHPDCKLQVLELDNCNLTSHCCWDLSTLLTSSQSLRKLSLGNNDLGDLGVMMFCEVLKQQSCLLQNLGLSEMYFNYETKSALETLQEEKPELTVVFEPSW

| Molecule | internalization of the Ab (THP1 cells [1]) | IL-1β release (THP1 cells [2]) | caspase-1 activation (THP1 cells [3]; differentiated THP1, LPS 1 ug/ml 3 h, Ab 1 ug/ml 30 min, ATP 5 mM 1 h, FAM-FLICA) | caspase-1 activation in THP1 cells that have internalized the Ab (THP1 cells [3]; pHrodo red labelled Ab 1 ug/ml, compared to THP1 cells that did not internalize the Ab) | death of RGCs ([4]; InflaMab, FIG. 42 title) | RGC function (pERG amplitude) ([4]; single intravitreal injection Day 0, final vitreous concentration 250 ng/ml, compared to microbeads only or Inflamab at 2.5 or 25 ng/ml, preliminary) | preventing NLRP3 assembly (NLRP3 inflammasome) |
| --- | --- | --- | --- | --- | --- | --- | --- |
| B1 | internalization | prevents IL-1β release | prevents caspase-1 activation | significant reduction of caspase-1 activation | prevents death of RGCs | recovery of RGC function |  |
| B2 |  |  |  |  |  |  | most active |
